± gives the standard deviation of the averaged measurements.
Test system: ATP
Assay: switch fluorescence ratio, 500 uM ATP over buffer (Cy3 cluster intensity, sum of 5 cycles each) (fold (ratio)); higher = stronger signal-on switching upon ATP binding; sequences stand for … in TCGTCGGCAGCGTCAGATGTGTATAAGAGACAGTTTTTTTTTTTTTTTTTTTTTTTTT…TC
Conditions: aptamer strand: ATP DNA aptamer (quencher-CACCTGGGGGAGTATTGCGGAGGAAGG + anchor), 100 nM annealed; ATP concentration: 500 uM
How it was run: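 The fluorescence ratio divides summed target-cycle Cy3 intensity by summed buffer-cycle Cy3 intensity for each cluster and is averaged per switch-domain sequence. Cy3-labelled switching-strand clusters on a modified Illumina MiSeq flow-cell were annealed to 100 nM quencher-labelled ATP aptamer, then imaged in selection buffer and again after 15 min with 500 uM ATP at 22 °C. Five such cycles were run, with NaOH stripping and re-annealing between them, and clusters outside 100-1000 RFU were excluded.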
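Also: ATP exposure 15 min at 22 °C before imaging.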

| Sequence | switch fluorescence ratio |
| --- | --- |
| GTCTGAACGG | 0.9762 ± 0.0081 |
| GTCTGTTATT | 1.01 ± 0.035 |
| GTCTTAACGA | 0.981 ± 0.015 |
| GTCTTGGGGG | 1 ± 0.023 |
| GTGAAAATTT | 1.07 ± 0.083 |
| GTGAAACGGG | 0.998 ± 0.07 |
| GTGAAAGCGT | 0.961 ± 0.016 |
| GTGAAAGTCG | 0.9929 ± 0.0024 |
| GTGAACAGCA | 1.01 ± 0.025 |
| GTGAAGATTG | 1.02 ± 0.032 |
| GTGAATAGGG | 0.989 ± 0.028 |
| GTGAATGTAT | 1.02 ± 0.021 |
| GTGAATTTGT | 1.09 ± 0.15 |
| GTGACATTAA | 0.998 ± 0.03 |
| GTGACCGGCG | 1.03 ± 0.053 |
| GTGACTATGG | 0.96325 ± 0.00082 |
| GTGAGAGGGG | 1.008 ± 0.0069 |
| GTGAGGCGGT | 0.968 ± 0.017 |
| GTGAGGGATT | 1 ± 0.022 |
| GTGAGGGGTA | 0.975 ± 0.033 |
| GTGAGGGTGA | 1 ± 0.011 |
| GTGAGTCTAA | 0.993 ± 0.018 |

| Sequence | switch fluorescence ratio |
| --- | --- |
| GTGAGTGTCA | 1 ± 0.03 |
| GTGAGTGTTT | 0.99 ± 0.011 |
| GTGATAAATG | 0.956 ± 0.021 |
| GTGATAAGAC | 1.042 ± 0.0085 |
| GTGATAGGGC | 0.999 ± 0.025 |
| GTGATATTGT | 1.01 ± 0.011 |
| GTGATCGGGT | 1.02 ± 0.015 |
| GTGATCTGGG | 0.9689 ± 0.0053 |
| GTGATGCTTG | 0.998 ± 0.037 |
| GTGATGGGGA | 0.9895 ± 0.0095 |
| GTGATTACTG | 0.97 ± 0.011 |
| GTGATTAGGG | 0.968 ± 0.022 |
| GTGATTTAGA | 0.9969 ± 0.0054 |
| GTGATTTGGG | 1.01 ± 0.0076 |
| GTGCAAGGGT | 1.01 ± 0.029 |
| GTGCCATGTT | 0.9816 ± 0.0083 |
| GTGCCCAACG | 1.03 ± 0.03 |
| GTGCGACGTT | 0.965 ± 0.08 |
| GTGCTATCTA | 1 ± 0.023 |
| GTGCTCTTAC | 1.11 ± 0.014 |
| GTGCTTCTTA | 0.992 ± 0.025 |
| GTGCTTCTTT | 0.99 ± 0.011 |

| Sequence | switch fluorescence ratio |
| --- | --- |
| GTGGAAGTTG | 0.949 ± 0.041 |
| GTGGAATAAT | 0.981 ± 0.015 |
| GTGGACATAT | 0.991 ± 0.015 |
| GTGGACTAGT | 1.02 ± 0.026 |
| GTGGAGGGGA | 1.01 ± 0.043 |
| GTGGATTTGG | 1.019 ± 0.0056 |
| GTGGATTTTC | 1 ± 0.062 |
| GTGGCAGGGG | 1.36 ± 0.63 |
| GTGGCATACT | 1.12 ± 0.016 |
| GTGGCATGGG | 1 ± 0.014 |
| GTGGCCCTAT | 0.998 ± 0.027 |
| GTGGCTGGGA | 0.974 ± 0.026 |
| GTGGCTTGGG | 1.02 ± 0.018 |
| GTGGGAAAGG | 0.9715 ± 0.0057 |
| GTGGGAACAG | 0.979 ± 0.011 |
| GTGGGAATTA | 0.996 ± 0.025 |
| GTGGGACGAG | 0.971 ± 0.018 |
| GTGGGAGGGA | 1.02 ± 0.043 |
| GTGGGAGGTT | 0.948 ± 0.036 |
| GTGGGATCCG | 0.998 ± 0.014 |
| GTGGGATGAG | 1.01 ± 0.022 |
| GTGGGATGGG | 0.973 ± 0.019 |

| Sequence | switch fluorescence ratio |
| --- | --- |
| GTGGGCCGAG | 1.021 ± 0.0076 |
| GTGGGCGCCG | 0.987 ± 0.023 |
| GTGGGCGGGG | 0.979 ± 0.031 |
| GTGGGGAATA | 1.03 ± 0.043 |
| GTGGGGAGCT | 1.03 ± 0.061 |
| GTGGGGATGT | 1.01 ± 0.024 |
| GTGGGGCAAA | 1 ± 0.043 |
| GTGGGGCATA | 0.982 ± 0.017 |
| GTGGGGCCGC | 0.979 ± 0.036 |
| GTGGGGGCCC | 0.993 ± 0.017 |
| GTGGGGGCGG | 1.01 ± 0.022 |
| GTGGGGGCTG | 0.9878 ± 0.0047 |
| GTGGGGGGTC | 1.01 ± 0.062 |
| GTGGGGTGGG | 0.986 ± 0.029 |
| GTGGGTGGGA | 0.982 ± 0.046 |
| GTGGGTGTCC | 1.01 ± 0.017 |
| GTGGGTTGGA | 0.993 ± 0.033 |
| GTGGGTTTGG | 0.999 ± 0.049 |
| GTGGTAAAAG | 0.984 ± 0.013 |

Reference: the supplement of paper PMC10126150
